Laboratory results from publication doi:10.1101/2023.01.31.526478.

Target: SNAP-SPIN1 (human) (UniProt Q9Y657)
Assay: FRET or BRET

Sequence of UniProt Q9Y657 (Q9Y657 whole entry): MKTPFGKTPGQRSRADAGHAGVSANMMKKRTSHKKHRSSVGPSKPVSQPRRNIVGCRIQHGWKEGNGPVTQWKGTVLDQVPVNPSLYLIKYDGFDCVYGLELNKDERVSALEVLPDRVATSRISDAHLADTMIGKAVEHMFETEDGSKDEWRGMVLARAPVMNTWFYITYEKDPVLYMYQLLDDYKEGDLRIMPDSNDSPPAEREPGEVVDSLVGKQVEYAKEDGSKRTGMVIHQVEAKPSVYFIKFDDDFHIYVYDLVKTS

**Q.** Which FRET efficiency does the source give for “Halo-WDR76 (from UniProt Q9H967 1-626) (natural protein)” here?
**A.** 2%
